Test results taken from patent US20060051835A1 (published 2006).
Values belong to the binder of their own block, whether it stands above or below them.

Biological target: T1, FLAG-tagged Parkin (Wild type) (human, UniProt O60260 1-465)
T1 construct: whole, on cells; Plasmid described in Imai et al. 2000; also called FLAG-Parkin; the full-length Parkin; not shown: FLAG tag
Assay: co-immunoprecipitation from 293T cells (FLAG-IP, anti-Myc Western blot)
Description: We have previously reported that the expression of Parkin is increased due to the stress induced by misfolded proteins, so as to have an effect of suppressing cell death resulting from the stress induced by misfolded proteins (Imai, Y. et al. (2000) J Biol Chem 275, 35661-35664). Against endoplasmic reticulum stress, a series of unfolded protein responses (UPR) including endoplasmic reticulum (ER)-associated degradation (ERAD), which regulate gene expression, are induced (Travers, K. J. et al., (2000) Cell 101, 249-258). ERAD degrades misfolded membrane proteins or secretory proteins with the degradation system within the cytoplasm (Plemper, R. K. et al., (1999) Trends Biochem Sci 24, 266-270). ERAD substrate was transported back through the membrane of the endoplasmic reticulum to the cytoplasm, in which it is ubiquitinated and degraded by the action of UBC6, UBC7, proteasome complex and the like (Biederer, T. et al., (1997) Science 278, 1806-1809; Bordallo, J. et al., (1998) Mol Biol Cell 9, 209-222; Gilon, T. et al., (2000) Mol Cell Biol 20, 7214-7219; Wilhovsky, S. et al., (2000) Mol Biol Cell 11, 1697-1708). […] Immunoprecipitates (FLAG-IP) immunoprecipitated with anti-FLAG monoclonal antibodies and soluble total cell extract (Total lysate) were analyzed by Western blotting (WB) using anti-FLAG or anti-Myc antibodies.

T1 sequence (O60260 whole entry): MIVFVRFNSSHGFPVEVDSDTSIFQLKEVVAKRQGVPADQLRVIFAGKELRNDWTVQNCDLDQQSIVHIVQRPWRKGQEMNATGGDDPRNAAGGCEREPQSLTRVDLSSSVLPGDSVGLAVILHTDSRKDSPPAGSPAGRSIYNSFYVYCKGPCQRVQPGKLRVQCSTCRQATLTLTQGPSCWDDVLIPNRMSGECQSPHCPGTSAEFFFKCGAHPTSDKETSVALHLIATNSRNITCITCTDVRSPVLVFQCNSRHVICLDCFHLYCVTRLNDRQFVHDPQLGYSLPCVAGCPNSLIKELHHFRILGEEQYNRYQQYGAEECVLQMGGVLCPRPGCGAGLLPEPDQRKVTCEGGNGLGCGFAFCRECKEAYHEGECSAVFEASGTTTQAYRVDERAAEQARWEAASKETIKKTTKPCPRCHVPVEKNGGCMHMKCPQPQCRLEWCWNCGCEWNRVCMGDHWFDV

binding result: no binding
B1: Myc-E2-25K (enzyme, human, UniProt P61086 2-200, looked up)
chain: ANIAVQRIKREFKEVLKSEETSKNQIKVDLVDENFTELRGEIAGPPDTPYEGGRYQLEIKIPETYPFNPPKVRFITKIWHPNISSVTGAICLDILKDQWAAAMTLRTVLLSLQALLAAAEPDDPQDAVVANQYKQNPEMFKQTARLWAHVYAGAPVSSPEYTKKIENLCAMGFDRNAVIVALSSKSWDVETATELLLSN
notes: whole, on cells; not shown: Myc tag

binding result: no binding
B2: Myc-UBCH6 (enzyme, UniProt P51965 2-193, looked up)
chain: SDDDSRASTSSSSSSSSNQQTEKETNTPKKKESKVSMSKNSKLLSTSAKRIQKELADITLDPPPNCSAGPKGDNIYEWRSTILGPPGSVYEGGVFFLDITFTPEYPFKPPKVTFRTRIYHCNINSQGVICLDILKDNWSPALTISKVLLSICSLLTDCNPADPLVGSIATQYMTNRAEHDRMARQWTKRYAT
notes: as for B1
